{"source": "paper PMC12295887", "key": {"[1]": {"target": "actin purified from rabbit skeletal muscle (m. longissimus dorsi) (rabbit) (UniProt P68135)"}, "[2]": {"target": "actin purified from rabbit skeletal muscle (m. longissimus dorsi) (rabbit) (UniProt P68135)", "remark": "listed apart in the source"}, "[3]": {"target": "actin purified from rabbit skeletal muscle (m. longissimus dorsi) (rabbit) (UniProt P68135)", "remark": "listed apart in the source"}}}
{"substance": "PEVKII, the middle one-third segment of the human skeletal muscle titin PEVK domain (domain or fragment)", "values": [{"measurement": "pyrene-actin fluorescence excitation and emission intensity after 800 s of polymerization, 4 µM actin (10% pyrene-labeled) with 5.5 nM PEVKII, against actin alone", "setting": "[1]", "result": 16, "unit": "%"}, {"measurement": "initial rate of actin polymerization (pyrene assay, 4 µM actin), PEVKII 3.25-32.5 nM, against actin alone", "setting": "[2]", "result": "> 30", "unit": "fold"}, {"measurement": "peak pyrene fluorescence intensity (total amount of F-actin), 4 µM actin, PEVKII 3.25-32.5 nM, against actin alone", "setting": "[3]", "result": 22, "unit": "%"}, {"measurement": "time to reach the peak pyrene fluorescence intensity, 4 µM actin, PEVKII 3.25-32.5 nM, against actin alone", "setting": "[3]", "result": "> 3", "unit": "times faster"}]}
